Target: GST-Trs33, bacterially expressed (S. cerevisiae) (UniProt Q99394)
Assay: pull-down

Chain of UniProt Q99394 (Q99394 whole entry): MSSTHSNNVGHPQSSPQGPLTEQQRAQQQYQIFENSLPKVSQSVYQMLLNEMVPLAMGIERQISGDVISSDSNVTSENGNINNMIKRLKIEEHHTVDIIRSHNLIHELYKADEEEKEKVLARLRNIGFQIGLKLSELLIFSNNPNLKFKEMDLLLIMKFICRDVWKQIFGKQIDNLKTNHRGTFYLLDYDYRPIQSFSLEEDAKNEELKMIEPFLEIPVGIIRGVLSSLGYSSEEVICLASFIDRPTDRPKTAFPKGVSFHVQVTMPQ

percent co-precipitated: 0.5%
Substance: Trs130-HA, bacterially expressed (from UniProt Q03660 1-1102) (natural protein)

From article PMC2794200
